Publication PMC7924616

Biological target: Gorilla bocavirus 1 (GBoV1) VP3, assembled as virus-like particles (VP3-only capsids) (Gorilla bocavirus 1)
Assay: cryo-EM structure; purified GBoV1 VLPs (wild-type and VP3-only) in 1x PBS vitrified on holey carbon grids; Titan Krios 300 kV; cisTEM reconstruction with imposed icosahedral symmetry; 2.76 Å

## Gorilla bocavirus 1 (GBoV1) VP3, assembled as virus-like particles (VP3-only capsids) (natural protein)
  stoichiometry N: 60
